Biological target: T1, SARS-CoV-2 Spike RBD (residues 334–527), C-terminal Avi-His6 tag, biotinylated (SARS-CoV-2, reference (Wuhan-Hu-1) …, UniProt P0DTC2, biotin on the Avi-tag)
T1 construct: also called biotinylated RBD; SARS‐CoV‐2 RBD‐loaded sensors
Experiment: BLI
Conditions: both partners purified

B1: VHH antibody Re9F06 (VHH)
VHH: QVQLVESGGGLVQAGGSLRLSCAASGRTFSNDALGWFRQAPRKEREFVAAINWNSGTYYADSVKGRFTISRDNAKNTVYLQMNSLKPEDTAVYSCAAASDYGLPREDFLYDYWGQGTQVTVSS
notes: also called fold-promoter Re9F06; fold-promoting nanobody Re9F06
Kd: 4 nM

Source: article PMC8420576 (The EMBO Journal, 2021)
